Experiments:
HLA-A*31:01 = assay: IEDB peptide-MHC binding, purified MHC/direct/fluorescence; filed as Kd, often an IC50 or EC50 that approximates it; ≥ and ≤ were set here for values at or beyond the usual limits of such assays
HLA-A*01:01 = assay: as above
HLA-B*48:01 = assay: as above
HLA-B*15:01 = assay: as above; details: source organism: Mammarenavirus juninense
HLA-B*18:01 = assay: as above
HLA-B*27:05 = assay: as above
HLA-B*07:02 [1] = assay: as above; details: source organism: Mammarenavirus juninense
HLA-B*57:01 = assay: as above
HLA-B*46:01 = assay: as above
HLA-B*58:01 = assay: as above
HLA-B*44:02 = assay: as above
HLA-B*40:01 = assay: as above
HLA-A*03:01 [2] = assay: as above
HLA-A*02:01 = assay: as above; details: source organism: Mammarenavirus juninense
HLA-B*08:01 = assay: as above
HLA-B*53:01 = assay: IEDB peptide-MHC binding, purified MHC/competitive/radioactivity; filed as Kd, often an IC50 or EC50 that approximates it; ≥ and ≤ were set here for values at or beyond the usual limits of such assays
HLA-B*35:01 = assay: as above
HLA-B*51:01 = assay: as above
HLA-B*07:02 [3] = assay: as above
HLA-B*54:01 = assay: as above
HLA-A*03:01 [4] = assay: IEDB peptide-MHC binding, purified MHC/competitive/fluorescence; filed as Kd, often an IC50 or EC50 that approximates it; ≥ and ≤ were set here for values at or beyond the usual limits of such assays
HLA-A*69:01 = assay: IEDB peptide-MHC binding, purified MHC/direct/fluorescence; filed as Kd, often an IC50 or EC50 that approximates it; ≥ and ≤ were set here for values at or beyond the usual limits of such assays; details: source organism: Mycobacterium tuberculosis variant bovis BCG str. Pasteur 1173P2
HLA-A*11:01 [5] = assay: as above; details: source organism: Mycobacterium tuberculosis variant bovis BCG str. Pasteur 1173P2
HLA-A*11:01 [6] = assay: IEDB peptide-MHC binding, purified MHC/competitive/fluorescence; ≥ and ≤ were set here for values at or beyond the usual limits of such assays; details: source organism: Zaire ebolavirus
HLA-A*23:01 = assay: IEDB peptide-MHC binding, purified MHC/competitive/radioactivity; filed as Kd, often an IC50 or EC50 that approximates it; ≥ and ≤ were set here for values at or beyond the usual limits of such assays; details: source organism: SARS coronavirus Tor2
HLA-A*30:02 = assay: as above; details: source organism: SARS coronavirus Tor2
HLA-A*29:02 = assay: as above; details: source organism: SARS coronavirus Tor2
HLA-A*24:02 = assay: as above; details: source organism: SARS coronavirus Tor2
HLA-A*26:01 = assay: as above; details: source organism: SARS coronavirus Tor2
HLA-A*02:11 = assay: IEDB peptide-MHC binding, purified MHC/direct/fluorescence; filed as Kd, often an IC50 or EC50 that approximates it; ≥ and ≤ were set here for values at or beyond the usual limits of such assays; details: source organism: SARS-CoV1
[7] = source organism: Mammarenavirus juninense
[8] = source organism: Vaccinia virus WR
[9] = source organism: Mycobacterium tuberculosis variant bovis BCG str. Pasteur 1173P2
[10] = source organism: Triticum aestivum
[11] = source organism: Mammarenavirus lassaense

DLKLVDVKL was tested, and the Kd (HLA-A*31:01; [7]) was ≥ 20000 nM, the Kd (HLA-A*01:01; [7]) was ≥ 20000 nM and the Kd (HLA-B*48:01; [7]) was ≥ 20000 nM. The Kd (HLA-B*15:01) was ≥ 20000 nM, the Kd (HLA-B*18:01; [7]) was ≥ 20000 nM and the Kd (HLA-B*27:05; [7]) was ≥ 20000 nM. For the same sequence, the Kd (HLA-B*07:02 [1]) was ≥ 20000 nM, the Kd (HLA-B*57:01; [7]) was ≥ 20000 nM and the Kd (HLA-B*46:01; [7]) was ≥ 20000 nM. For the same sequence, the Kd (HLA-B*58:01; [7]) was ≥ 20000 nM, the Kd (HLA-B*44:02; [7]) was ≥ 20000 nM and the Kd (HLA-B*40:01; [7]) was ≥ 20000 nM. For the same sequence, the Kd (HLA-A*03:01 [2]; [7]) was ≥ 20000 nM, the Kd (HLA-A*02:01) was ≥ 20000 nM and the Kd (HLA-B*08:01; [7]) was ≥ 20000 nM.
With DPGNPNCLEW the Kd (HLA-B*53:01; [8]) was 6.64 nM, the Kd (HLA-B*35:01; [8]) was ≥ 56500 nM and the Kd (HLA-B*51:01; [8]) was ≥ 69600 nM. The Kd (HLA-B*07:02 [3]; [8]) was ≥ 69600 nM and the Kd (HLA-B*54:01; [8]) was ≥ 69900 nM.
For RCYPGYTLK, the Kd (HLA-A*03:01 [4]; source organism: Giardia lamblia ATCC 50803) was 62.3 nM.
Work on VLRRGALAH yielded a Kd (HLA-A*03:01 [4]; source organism: Vibrio cholerae 2740-80) of 14 nM.
Work on EQLGVPLHL yielded a Kd (HLA-B*48:01; source organism: Vibrio alginolyticus 12G01) of 488 nM.
In the case of IIRVTSELL, the Kd (HLA-A*31:01; [9]) is reported as ≥ 20000 nM, the Kd (HLA-A*01:01; [9]) is reported as ≥ 20000 nM and the Kd (HLA-B*48:01; [9]) is reported as ≥ 20000 nM. The Kd (HLA-A*69:01) was ≥ 20000 nM, the Kd (HLA-B*18:01; [9]) was ≥ 20000 nM and the Kd (HLA-B*27:05; [9]) was ≥ 20000 nM. The Kd (HLA-A*11:01 [5]) was ≥ 20000 nM, the Kd (HLA-B*57:01; [9]) was ≥ 20000 nM and the Kd (HLA-B*46:01; [9]) was ≥ 20000 nM. The Kd (HLA-B*58:01; [9]) was ≥ 20000 nM, the Kd (HLA-B*44:02; [9]) was ≥ 20000 nM and the Kd (HLA-B*40:01; [9]) was ≥ 20000 nM. The Kd (HLA-A*03:01 [2]; [9]) was ≥ 20000 nM and the Kd (HLA-B*08:01; [9]) was 13000 nM.
In the case of WRTIMAVLF, the Kd (HLA-B*48:01; source organism: dengue virus type 4) is reported as ≥ 20000 nM.
For FPSQQPYL, the Kd (HLA-B*53:01; [10]) was 323 nM, the Kd (HLA-B*35:01; [10]) was 735 nM and the Kd (HLA-B*51:01; [10]) was 3.53 nM. It also gave a Kd (HLA-B*07:02 [3]; [10]) of 1030 nM and a Kd (HLA-B*54:01; [10]) of 4330 nM.
With YPNSSDLDM the Kd (HLA-B*53:01; [11]) was 14.1 nM, the Kd (HLA-B*35:01; [11]) was 8.23 nM and the Kd (HLA-B*51:01; [11]) was 780 nM. The Kd (HLA-B*07:02 [3]; [11]) was 233 nM and the Kd (HLA-B*54:01; [11]) was ≥ 53900 nM.
For FPAQPGLTSA, the Kd (HLA-B*53:01; [11]) was 2910 nM, the Kd (HLA-B*35:01; [11]) was 51 nM and the Kd (HLA-B*51:01; [11]) was ≥ 32300 nM. The Kd (HLA-B*07:02 [3]; [11]) was 49.6 nM and the Kd (HLA-B*54:01; [11]) was 6.39 nM.
With SPTEMVDVSM the Kd (HLA-B*53:01; [8]) was 1940 nM, the Kd (HLA-B*35:01; [8]) was 37.2 nM and the Kd (HLA-B*51:01; [8]) was ≥ 69600 nM. The Kd (HLA-B*07:02 [3]; [8]) was 122 nM and the Kd (HLA-B*54:01; [8]) was ≥ 42700 nM.
GEWAFWETK was tested, and the IC50 (HLA-A*11:01 [6]) was 58000 nM.
PVDEYITTY was tested, and the Kd (HLA-A*23:01) was ≥ 77800 nM, the Kd (HLA-A*30:02) was 1480 nM and the Kd (HLA-A*29:02) was 544 nM. The Kd (HLA-A*24:02) was ≥ 77600 nM, the Kd (HLA-A*26:01) was 10800 nM and the Kd (HLA-A*01:01; source organism: SARS-CoV1) was 44 nM. The Kd (HLA-A*02:11) was ≥ 20000 nM.
In the case of TPLHKYCVNL, the Kd (HLA-B*53:01; [8]) is reported as 891 nM, the Kd (HLA-B*35:01; [8]) is reported as 7360 nM and the Kd (HLA-B*51:01; [8]) is reported as ≥ 37100 nM. It also gave a Kd (HLA-B*07:02 [3]; [8]) of 11.3 nM and a Kd (HLA-B*54:01; [8]) of 4860 nM.
Sequence LPPFTQHLL has a Kd (HLA-B*53:01; [8]) of 91.3 nM, a Kd (HLA-B*35:01; [8]) of 240 nM and a Kd (HLA-B*51:01; [8]) of 18.6 nM. The Kd (HLA-B*07:02 [3]; [8]) was 401 nM and the Kd (HLA-B*54:01; [8]) was 3030 nM.

Source: the Immune Epitope Database (IEDB)
